# Entries after “also recorded” stand apart in the source; their conditions may differ.
# How the values were obtained:
# [1] = Biodistribution of 131I-labelled peptides after subcutaneous injection in NMRI mice; assay type: in vivo, male NMRI mice; conditions: 2.25 μg 131I-labeled peptide s.c., 10 min, 1 h, 4 h and 24 h post injection
# Procedure: Per time point 2.25 μg of ^131I-labeled HBVpreS/2-48^myr(D) were subcutaneously injected into NMRI mice (N=3). 10 min, 1 h, 4 h and 24 h post injection animals were sacrificed and the organ-specific (blood, lung, heart, spleen, liver, kidney and muscle) peptide accumulations (% ID/g) were determined.
# The biodistribution of the hydrophobic modified preS-derived peptides was studied in male NMRI mice. All experiments were performed in compliance with German laws. The peptides, containing an additional Tyr-residue at the C-terminal end were labelled with ^131I (Amersham Biosciences, Freiburg, Germany) by the chloramine-T method and purified by HPLC. The labelled peptides were subcutaneously administered by injection of a solution in 50% DMSO. At selected times mice were sacrificed and the radioactivity contained in the blood, heart, lung, spleen, liver, kidney, muscle and brain was measured in a γ-counter (Canberra Packard, Rüsselsheim, Germany) and expressed as a percentage of injected dose per gram of tissue (% ID/g).
# [2] = Biodistribution after subcutaneous application in uPA+/−/RAG-2−/−Pfp−/− mice; assay type: in vivo; conditions: 2.25 μg 131I-labeled peptide s.c., 10 min to 24 h
# [3] = Stability assessment of peptide after extraction from the liver (reversed phase HPLC); assay type: in vivo, uPA+/−/RAG-2−/−Pfp−/− mice; conditions: liver extracts 24 h post subcutaneous injection, 131I-labelled
# Procedure: Per animal approximately 2.25 μg of the ^131I-labelled peptides were subcutaneously injected. At the indicated time points animals were sacrificed and the liver specific peptide accumulation (% ID/g) was determined. (B) Reversed phase HPLC of pure ^131I-labelled HBVpreS/2-48^myr(D) (brown curve) in comparison to liver extracts (orange curve) obtained 24 h post subcutaneous injection into uPA+/−/RAG-2−/−Pfp−/− mice of the same peptide. Note that 50% of detectable activity is eluting at fraction 13. Since the hydrophobic myristoyl residue is located at the N-terminus and the iodinated Tyr-residue at the C-terminus fraction 13 represents the unaltered full-length peptide.
# To determine the peptide stability in the liver 131I labelled HBVpreS/2-48^myr (D) was extracted from one liver lobe 24 h post subcutaneous injection. To that aim, 1 ml water per gram frozen liver tissue was added to the sample. After homogenization an equal volume of acetonitrile was added and the homogenization was repeated. After centrifugation (2×10 min at 4000×g) this solution was separated on a reverse phase HPLC column and the radioactivity of each fraction was quantified in a gamma counter.
# [4] = test system: Primary mouse hepatocytes (PMH); assay: Immunofluorescence binding to primary mouse hepatocytes; assay type: cell-based; conditions: 400 nM peptide, 4 hours at 37° C.; for Binding to primary mouse hepatocytes (PMH): differentiated PMH
# Procedure: (§1) Cells were incubated with or without 400 nM peptide for 4 hours at 37° C.:
# […] After 1 hour incubation at 37° C. cells were fixed and nuclei were stained with DAPI. Fluorescence microscopy was performed on a Spinning Disk Confocal Microscope at 600× magnification.
# [5] = test system: primary human hepatocytes (PHH); assay: Immunofluorescence binding to primary human hepatocytes; assay type: cell-based; conditions: 400 nM peptide for 4 hours, confocal immunofluorescence
# Procedure: Primary human hepatocytes (PHH) were incubated with or without 400 nM peptide for 4 hours:
# (§2) Primary hepatocytes grown on cover slips were incubated with the respective peptide at 200 nM in serum-free cell culture medium. After 1 hour incubation at 37° C. cells were fixed and nuclei were stained with DAPI. Fluorescence microscopy was performed on a Spinning Disk Confocal Microscope at 600× magnification.
# HepaRG cells = assay: Immunofluorescence binding to HepaRG cells; assay type: cell-based; conditions: 400 nM peptide, 4 hours at 37° C.
# Procedure: as §1
# HepaRG cells were grown in William's E medium supplemented with 10% fetal calf serum (FCS), 100 units/ml penicillin, 100 μg/ml streptomycin, 5 μg/ml insulin and 5×10^−5 M hydrocortisone hemisuccinate (10). Cells were passaged 1/5 every two weeks by trypsination. Two to three weeks before infection cell differentiation was induced by adding 2% DMSO into the maintenance medium. The medium was exchanged every 2-3 days.
# as §2
# [6] = test system: Primary mouse hepatocytes (PMH); assay: FACS analysis of binding to primary mouse hepatocytes; assay type: cell-based; conditions: 200 nM, 30 minutes at room temperature
# Procedure: Cryo-preserved primary hepatocytes were thawed and washed with serum-free medium. In each reaction 4×10^5 cells/ml were incubated with the respective peptide at a concentration of 200 nM in serum-free cell culture medium. The staining was performed for 30 minutes at room temperature with frequent mixing. Subsequently, cells were washed extensively and resuspended in PBS to proceed with the FACS analysis.
Substance,organ-specific peptide accumulation (biodistribution) [1],organ-specific peptide accumulation (biodistribution) [2],detectable activity eluting at fraction 13 (unaltered full-length peptide) in liver extract [3],Binding to primary mouse hepatocytes (PMH) [4],Binding to primary human hepatocytes (PHH) [5],Binding to differentiated HepaRG cells (HepaRG cells),Binding to de-differentiated primary mouse hepatocytes (PMH) ([4]; de-differentiated PMH),"Binding to primary mouse hepatocytes (PMH), FACS analysis [6]",Binding to undifferentiated HepaRG cells (HepaRG cells; undifferentiated cells)
"HBVpreS/2-48^myr(D): SEQ ID NO. 23, genotype D residues 2-48, N-terminus myristoylated",most of the peptide accumulates in the liver,most of the peptide accumulates in the liver,50%,–,–,–,–,–,–
wt myr(−)-FITC: HBVpreS/2-48(C)-FITC without myristoylation [reference compound],–,–,–,Only wt myr-FITC binds to the cells,only in B binding of the peptide to the cells can be seen,Only wt myr-FITC binds to the cells,–,–,–
"wt myr-FITC: HBVpreS/2-48 myr (C) with lysine at the C-terminus [SEQ ID NO. 39], labelled with FITC",–,–,–,Only wt myr-FITC binds to the cells; also recorded: binds only to differentiated cells,only in B binding of the peptide to the cells can be seen,Only wt myr-FITC binds to the cells; also recorded: binds only to differentiated cells,binds only to differentiated cells,Only wt myr-FITC binds to the cells,binds only to differentiated cells
mut myr-FITC: HBVpreS/2-48 myr (C)-FITC with D-Leu and D-Phe at positions L11 and F13 [reference compound],–,–,–,Only wt myr-FITC binds to the cells,only in B binding of the peptide to the cells can be seen,Only wt myr-FITC binds to the cells,–,Only wt myr-FITC binds to the cells,–

# From patent publication US9868768B2, “Hydrophobic modified pres-derived peptides of hepatitis B virus (HBV) and their use as vehicles for the specific delivery of compounds to the liver” (RUPRECHT-KARLS-UNIVERSITAT HEIDELBERG, priority 2008, dated 2018)
